From the supplement of paper PMC11136658

System: peptide library, one residue held at a place counted from the Y acceptor
Assay: relative phosphorylation of the sub-library (ratio to the mean residue at this position); higher = residue favoured
How it was run: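 Within 384-well plates, purified recombinant kinases phosphorylated biotinylated Tyr-centred peptide library mixtures over 90 min using 50 μM ATP spiked with γ-32P-ATP; each mixture fixed one residue at one position from −5 to +5. Streptavidin membrane capture, rinsing, phosphorimaging and ImageQuant gave the intensities. These were normalized per position to the sum of the 18 randomized residues (16 for the Ser/Thr-free library) and multiplied by that number.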

Chain of FGFR2, construct: aa285-end, human (P21802 285-821, looked up): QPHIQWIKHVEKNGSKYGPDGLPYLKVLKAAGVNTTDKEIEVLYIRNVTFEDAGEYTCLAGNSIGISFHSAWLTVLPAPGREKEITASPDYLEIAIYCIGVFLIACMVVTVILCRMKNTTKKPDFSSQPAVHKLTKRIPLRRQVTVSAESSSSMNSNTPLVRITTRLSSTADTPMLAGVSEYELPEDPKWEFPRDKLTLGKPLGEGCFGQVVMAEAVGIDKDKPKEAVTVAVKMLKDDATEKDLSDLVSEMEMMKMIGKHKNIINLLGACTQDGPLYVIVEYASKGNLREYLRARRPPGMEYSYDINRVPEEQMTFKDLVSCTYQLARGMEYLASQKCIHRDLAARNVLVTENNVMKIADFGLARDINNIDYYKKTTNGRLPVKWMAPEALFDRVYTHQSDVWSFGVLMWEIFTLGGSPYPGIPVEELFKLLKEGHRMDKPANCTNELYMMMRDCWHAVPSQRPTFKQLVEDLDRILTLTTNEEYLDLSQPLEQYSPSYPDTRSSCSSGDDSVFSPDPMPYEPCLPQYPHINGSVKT

Substance: FGFR2, construct: aa285-end, human (from UniProt P21802)
- relative phosphorylation (N fixed, at +1): 0.472
- relative phosphorylation (N fixed, at +2): 1.01
- relative phosphorylation (N fixed, at +3): 0.488
- relative phosphorylation (N fixed, at +4): 0.865
- relative phosphorylation (N fixed, at +5): 0.987
- relative phosphorylation (N fixed, at -1): 1.3
- relative phosphorylation (N fixed, at -2): 1.14
- relative phosphorylation (N fixed, at -3): 1.28
- relative phosphorylation (N fixed, at -4): 0.939
- relative phosphorylation (N fixed, at -5): 1.05
- relative phosphorylation (P fixed, at +1): 1.11
- relative phosphorylation (P fixed, at +2): 0.612
- relative phosphorylation (P fixed, at +3): 0.666
- relative phosphorylation (P fixed, at +4): 1.16
- relative phosphorylation (P fixed, at +5): 1.47
- relative phosphorylation (P fixed, at -1): 0.815
- relative phosphorylation (P fixed, at -2): 1.08
- relative phosphorylation (P fixed, at -3): 0.924
- relative phosphorylation (P fixed, at -4): 1.17
- relative phosphorylation (P fixed, at -5): 1.01
- relative phosphorylation (Q fixed, at +1): 0.953
- relative phosphorylation (Q fixed, at +2): 0.78
- relative phosphorylation (Q fixed, at +3): 0.776
- relative phosphorylation (Q fixed, at +4): 0.97
- relative phosphorylation (Q fixed, at +5): 0.832
- relative phosphorylation (Q fixed, at -1): 1.04
- relative phosphorylation (Q fixed, at -2): 1.12
- relative phosphorylation (Q fixed, at -3): 0.892
- relative phosphorylation (Q fixed, at -4): 1.03
- relative phosphorylation (Q fixed, at -5): 0.952
- relative phosphorylation (R fixed, at +1): 0.706
- relative phosphorylation (R fixed, at +2): 0.758
- relative phosphorylation (R fixed, at +3): 0.551
- relative phosphorylation (R fixed, at +4): 1.39
- relative phosphorylation (R fixed, at +5): 0.884
- relative phosphorylation (R fixed, at -1): 0.495
- relative phosphorylation (R fixed, at -2): 1.24
- relative phosphorylation (R fixed, at -3): 1.12
- relative phosphorylation (R fixed, at -4): 1.26
- relative phosphorylation (R fixed, at -5): 1.34
- relative phosphorylation (S fixed, at +1): 0.733
- relative phosphorylation (S fixed, at +2): 0.665
- relative phosphorylation (S fixed, at +3): 0.545
- relative phosphorylation (S fixed, at +4): 0.966
- relative phosphorylation (S fixed, at +5): 1.02
- relative phosphorylation (S fixed, at -1): 0.681
- relative phosphorylation (S fixed, at -2): 1.14
- relative phosphorylation (S fixed, at -3): 1.13
- relative phosphorylation (S fixed, at -4): 0.854
- relative phosphorylation (S fixed, at -5): 0.939
- relative phosphorylation (T fixed, at +1): 0.901
- relative phosphorylation (T fixed, at +2): 0.827
- relative phosphorylation (T fixed, at +3): 0.737
- relative phosphorylation (T fixed, at +4): 0.918
- relative phosphorylation (T fixed, at +5): 0.983
- relative phosphorylation (T fixed, at -1): 0.805
- relative phosphorylation (T fixed, at -2): 0.939
- relative phosphorylation (T fixed, at -3): 1.08
- relative phosphorylation (T fixed, at -4): 0.721
- relative phosphorylation (T fixed, at -5): 0.883
- relative phosphorylation (V fixed, at +1): 1.55
- relative phosphorylation (V fixed, at +2): 1.02
- relative phosphorylation (V fixed, at +3): 1.62
- relative phosphorylation (V fixed, at +4): 0.872
- relative phosphorylation (V fixed, at +5): 1.05
- relative phosphorylation (V fixed, at -1): 0.97
- relative phosphorylation (V fixed, at -2): 0.752
- relative phosphorylation (V fixed, at -3): 0.662
- relative phosphorylation (V fixed, at -4): 0.757
- relative phosphorylation (V fixed, at -5): 0.714
- relative phosphorylation (W fixed, at +1): 1.72
- relative phosphorylation (W fixed, at +2): 2.22
- relative phosphorylation (W fixed, at +3): 1.84
- relative phosphorylation (W fixed, at +4): 1.14
- relative phosphorylation (W fixed, at +5): 0.977
- relative phosphorylation (W fixed, at -1): 1.08
- relative phosphorylation (W fixed, at -2): 0.697
- relative phosphorylation (W fixed, at -3): 0.912
- relative phosphorylation (W fixed, at -4): 1.12
- relative phosphorylation (W fixed, at -5): 0.969
- relative phosphorylation (pThr fixed, at +1): 0.729
- relative phosphorylation (pThr fixed, at +2): 1.43
- relative phosphorylation (pThr fixed, at +3): 0.766
- relative phosphorylation (pThr fixed, at +4): 0.731
- relative phosphorylation (pThr fixed, at +5): 0.782
- relative phosphorylation (pThr fixed, at -1): 1.25
- relative phosphorylation (pThr fixed, at -2): 1
- relative phosphorylation (pThr fixed, at -3): 1.1
- relative phosphorylation (pThr fixed, at -4): 0.883
- relative phosphorylation (pThr fixed, at -5): 0.849
- relative phosphorylation (pTyr fixed, at +1): 2.75
- relative phosphorylation (pTyr fixed, at +2): 2.82
- relative phosphorylation (pTyr fixed, at +3): 0.616
- relative phosphorylation (pTyr fixed, at +4): 1.15
- relative phosphorylation (pTyr fixed, at +5): 0.835
- relative phosphorylation (pTyr fixed, at -1): 2.48
- relative phosphorylation (pTyr fixed, at -2): 1.25
- relative phosphorylation (pTyr fixed, at -3): 1.2
- relative phosphorylation (pTyr fixed, at -4): 1.1
- relative phosphorylation (pTyr fixed, at -5): 0.913
